This is an account of results in patent US20240402174A1 (Takeda / Millennium, published 2024).

Holding throughout (assay): multiplex microsphere immunoassay
Test [1] deals with T1, GII.3 VLP (norovirus Hu/GII.3/NIHIC8.1/2011/USA).
T1 construct: also called Hu/GII.3/NIHIC8.1/2011/USA
T1 chain: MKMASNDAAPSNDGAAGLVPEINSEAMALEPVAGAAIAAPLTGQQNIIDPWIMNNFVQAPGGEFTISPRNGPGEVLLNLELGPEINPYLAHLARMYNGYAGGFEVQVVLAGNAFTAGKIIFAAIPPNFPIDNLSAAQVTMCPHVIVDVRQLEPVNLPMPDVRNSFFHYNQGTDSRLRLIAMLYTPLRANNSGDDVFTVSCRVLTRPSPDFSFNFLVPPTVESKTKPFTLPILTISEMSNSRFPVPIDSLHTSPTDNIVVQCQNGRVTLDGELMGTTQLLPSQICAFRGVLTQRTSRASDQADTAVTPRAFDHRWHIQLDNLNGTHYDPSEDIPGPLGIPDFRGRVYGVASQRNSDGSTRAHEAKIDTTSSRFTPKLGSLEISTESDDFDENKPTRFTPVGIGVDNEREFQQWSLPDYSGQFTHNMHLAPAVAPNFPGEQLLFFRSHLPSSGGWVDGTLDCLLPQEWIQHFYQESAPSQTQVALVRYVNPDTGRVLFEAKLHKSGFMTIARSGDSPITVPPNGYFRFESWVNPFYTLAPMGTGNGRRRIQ

Test [2] deals with T2, GII.4/Consensus VLP (norovirus GII.4 consensus sequence, UniProt P54635 1-539).
T2 chain: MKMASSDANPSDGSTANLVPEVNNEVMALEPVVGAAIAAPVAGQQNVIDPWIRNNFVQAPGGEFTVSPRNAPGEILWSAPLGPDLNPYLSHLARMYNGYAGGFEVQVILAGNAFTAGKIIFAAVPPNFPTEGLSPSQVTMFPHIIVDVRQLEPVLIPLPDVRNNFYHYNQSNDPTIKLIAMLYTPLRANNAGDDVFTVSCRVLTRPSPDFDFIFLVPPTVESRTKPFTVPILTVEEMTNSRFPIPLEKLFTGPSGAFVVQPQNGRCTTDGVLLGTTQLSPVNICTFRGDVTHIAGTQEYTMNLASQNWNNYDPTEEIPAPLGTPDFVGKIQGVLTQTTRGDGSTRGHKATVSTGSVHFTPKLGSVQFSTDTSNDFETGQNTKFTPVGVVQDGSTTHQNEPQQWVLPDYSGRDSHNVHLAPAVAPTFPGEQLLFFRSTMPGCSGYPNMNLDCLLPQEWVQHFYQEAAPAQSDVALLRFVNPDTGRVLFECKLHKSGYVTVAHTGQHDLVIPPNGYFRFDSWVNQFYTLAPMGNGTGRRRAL

Test [3] deals with T3, GII.4/New Orleans VLP (norovirus Hu/GII.4/New …, UniProt P54635 1-539).
T3 construct: also called Hu/GII.4/New Orleans1805/2009/USA
T3 chain: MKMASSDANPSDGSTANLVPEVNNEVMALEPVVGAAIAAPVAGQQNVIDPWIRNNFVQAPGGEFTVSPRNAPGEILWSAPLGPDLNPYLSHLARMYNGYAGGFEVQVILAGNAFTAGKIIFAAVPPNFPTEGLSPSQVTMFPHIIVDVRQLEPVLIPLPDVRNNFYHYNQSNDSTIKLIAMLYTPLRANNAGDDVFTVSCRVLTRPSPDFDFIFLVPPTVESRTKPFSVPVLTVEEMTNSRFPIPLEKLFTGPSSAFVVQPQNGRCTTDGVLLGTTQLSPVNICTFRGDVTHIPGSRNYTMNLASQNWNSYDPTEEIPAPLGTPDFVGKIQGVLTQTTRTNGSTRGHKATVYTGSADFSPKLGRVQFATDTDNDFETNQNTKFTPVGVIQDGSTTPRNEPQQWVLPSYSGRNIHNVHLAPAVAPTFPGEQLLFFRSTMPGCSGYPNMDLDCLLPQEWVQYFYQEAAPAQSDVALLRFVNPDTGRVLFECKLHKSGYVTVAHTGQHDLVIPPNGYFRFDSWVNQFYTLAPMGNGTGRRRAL

Test [4] concerns the target T4, GII.6 VLP (norovirus Hu/GII.6/Ehime120246/2012/JP).
T4 construct: also called Hu/GII.6/Ehime120246/2012/JP
T4 chain: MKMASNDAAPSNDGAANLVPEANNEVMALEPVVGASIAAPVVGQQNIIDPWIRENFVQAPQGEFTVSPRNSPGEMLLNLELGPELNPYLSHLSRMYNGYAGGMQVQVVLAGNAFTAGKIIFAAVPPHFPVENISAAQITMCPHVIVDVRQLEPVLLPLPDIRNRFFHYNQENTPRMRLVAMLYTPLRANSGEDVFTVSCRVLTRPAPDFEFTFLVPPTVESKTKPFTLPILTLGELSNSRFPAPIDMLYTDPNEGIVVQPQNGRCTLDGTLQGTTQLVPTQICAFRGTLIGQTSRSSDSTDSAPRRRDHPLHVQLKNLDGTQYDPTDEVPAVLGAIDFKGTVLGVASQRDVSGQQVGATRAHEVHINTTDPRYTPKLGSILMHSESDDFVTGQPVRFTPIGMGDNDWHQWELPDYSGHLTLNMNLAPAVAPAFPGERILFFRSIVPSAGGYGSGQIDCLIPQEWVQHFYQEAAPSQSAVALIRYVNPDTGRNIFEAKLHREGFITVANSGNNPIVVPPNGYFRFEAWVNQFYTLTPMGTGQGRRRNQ

In test [5] the target is T5, GII.12 VLP (norovirus Hu/GII.12 strain E5152).
T5 construct: also called Hu/GII.12 strain E5152
T5 chain: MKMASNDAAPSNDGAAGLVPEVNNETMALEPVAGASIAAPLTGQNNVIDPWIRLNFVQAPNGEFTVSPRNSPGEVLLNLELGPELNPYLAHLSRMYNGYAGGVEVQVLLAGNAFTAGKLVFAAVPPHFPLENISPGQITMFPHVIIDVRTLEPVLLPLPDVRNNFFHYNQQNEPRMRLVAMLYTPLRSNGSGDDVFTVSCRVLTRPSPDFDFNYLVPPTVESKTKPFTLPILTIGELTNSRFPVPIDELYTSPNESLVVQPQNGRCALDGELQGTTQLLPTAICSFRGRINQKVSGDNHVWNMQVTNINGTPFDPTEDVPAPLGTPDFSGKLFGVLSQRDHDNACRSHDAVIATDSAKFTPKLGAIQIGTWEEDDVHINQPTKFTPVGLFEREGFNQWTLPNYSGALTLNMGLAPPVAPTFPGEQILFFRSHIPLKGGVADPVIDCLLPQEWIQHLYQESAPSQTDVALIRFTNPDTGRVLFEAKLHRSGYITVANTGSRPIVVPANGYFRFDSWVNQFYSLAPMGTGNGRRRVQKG

B1: human mAb 1431 (antibody, V domains shown)
VH: QVQLVQSGGGLVQPGGSLRLSCAASGFAFSNHGMHWVRQAPGKGLEWLSYISGSTGAIHYANSVKGRFTISRDNARNSLDLQMNSLGDEDTAVYYCARDGPRPDGTGYAGPSNDYWGQGTLVSVSS
VL: EIVLTQSPASLSLSPGERATLSCKASRSISIYLAWYQQKPGQAPRLLIYDASYRAIGIPARFSGSGSGTDFTLTISNLEPEDFAVYYCQHRSSWPALTFGGGTKVEI
notes: also called A1431
As a reminder, the EC50 is the concentration giving half of the maximal effect. Read a low EC50 as higher potency in that assay. Regarding B1, the binding result in test [1], in test [4] and in test [5] was “no binding” in each case. Besides, the EC50 turned out to be 0.07 µg/mL in test [2] and 0.018 µg/mL in test [3].

B2: human mAb 1227 (antibody, V domains shown)
VH: QVQLVQSGGGMVQPGGSLSLSCAASGFTLSNYAMTWVRQAPGKGLEWVSSIGGSGGTTYYADSVKGRFTISRDSSMNTLYLQMSNLRAGDTAVYYCAKDKTRTLRLGYSGMDVWGQGTTVTVSS
VL: DIRLTQSPSSLSASVGDRVTITCRASQSISSYLNWYQQKPGKAPDLLIYGASSLQSGVPSRFSGSGSGTDFTLTISSLQPEDFGNYYCQQSFSTPRTFGQGTKVEL
notes: also called A1227
On to B2, for which the EC50 in test [1] was 0.006 µg/mL; in test [2], 0.216 µg/mL; in test [3] it was 0.007 µg/mL; in test [4] it was 0.071 µg/mL; in test [5] it was 0.026 µg/mL.
